Measured values published in article PMC11480844 (2024).

B1: H2-Kb / Ed40 (parent complex)
chain 1: GDSVTQTEGPVTVSESESLIINCTYSATSIAYPNLFWYVRYPGEGLQLLLKVITAGQKGSSRGFEATYNKETTSFHLQKASVQESDSAVYYCALGDGYTGNYKYVFGAGTRLKVIA
chain 2: DSGVVQSPRHIIKEKGGRSVLTCIPISGHSNVVWYQQTLGKELKFLIQHYEKVERDKGFLPSRFSVQQFDDYHSEMNMSALELEDSAMYFCASSGASAETLYFGSGTRLTVL
chain 3: not shown
chain 4: IQKTPQIQVYSRHPPENGKPNILNCYVTQFHPPHIEIQMLKNGKKIPKVEMSDMSFSKDWSFYILAHTEFTPTETDTYACRVKHDSMAEPKTVYWDRDM
chain 5: SIINFEKL
B2: H2-Kb / Ed33 (parent complex)
chain 1: SQLAEENSWALSVHEGESVTVNCSYKTSITALQWYRQKSGKGPAQLILIRSNEREKRNGRLRATLDTSSQSSSLSITATRCEDTAVYFCATDHNNAGAKLTFGGGTRLTVRP
chain 2: DAGVTQTPRHEVAEKGQTIILKCEPVSGHNDLFWYRQTKIQGLELLSYFRSKSLMEDGGAFKDRFKAEMLNSSFSTLKIQPTEPKDSAVYLCASSLYTNQAPLFGEGTRLSVL
chain 3: not shown
chain 4: B1 chain 4
chain 5: SIINFEKL

Variants of: B1
Test: % of reporter cells activated (NFAT-GFP), raw
Further: test concentration or dose not given here.

Row | ratio to parent | Variant
1 | 0.754 | chain 5 K7H
2 | 0.444 | chain 5 K7Y
3 | 0.382 | chain 5 K7G
4 | 0.163 | chain 5 K7N
5 | 0.121 | chain 5 K7Q
6 | 0.0448 | chain 5 K7C
7 | 0.0365 | chain 5 N4K
8 | 0.00152 | chain 5 N4Q
9 | 0.00392 | chain 5 N4V
10 | 0.816 | chain 5 L8K
11 | 0.787 | chain 5 L8W
12 | 0.95 | chain 5 L8I
13 | 0.681 | chain 5 L8S
14 | 0.816 | chain 5 L8A
15 | 0.785 | chain 5 L8R
16 | 0.555 | chain 5 L8C
17 | 0.645 | chain 5 L8N
18 | 0.11 | chain 5 E6L
19 | 0.172 | chain 5 E6M
20 | 0.0789 | chain 5 E6T
21 | 0.00511 | chain 5 E6V
22 | 0.0704 | chain 5 E6Y
23 | 0.634 | chain 5 E6K
24 | 0.844 | chain 5 E6D
25 | 0.162 | chain 5 E6S
26 | 0.868 | chain 5 F5V
27 | 0.944 | chain 5 F5A
28 | 1.06 | chain 5 F5H

Row | ratio to parent | Variant
29 | 0.856 | chain 5 F5M
30 | 0.78 | chain 5 F5G
31 | 0.944 | chain 5 F5P
32 | 1.01 | chain 5 F5C
33 | 1.11 | chain 5 F5Y
34 | 1.22 | chain 5 F5T
35 | 1.02 | chain 5 I2C
36 | 1.07 | chain 5 I2P
37 | 1.2 | chain 5 I2D
38 | 0.913 | chain 5 I2M
39 | 0.834 | chain 5 I2Y
40 | 1 | chain 5 I2F
41 | 0.968 | chain 5 I2K
42 | 0.654 | chain 5 I2W
43 | 0.7 | chain 5 I2H
44 | 0.601 | chain 5 I3P
45 | 0.545 | chain 5 I3E
46 | 0.28 | chain 5 I3A
47 | 0.791 | chain 5 I3K
48 | 0.789 | chain 5 I3S
49 | 0.67 | chain 5 I3H
50 | 0.532 | chain 5 S1R
51 | 0.597 | chain 5 S1I
52 | 0.993 | chain 5 S1M
53 | 0.914 | chain 5 S1H
54 | 0.92 | chain 5 S1T
55 | 1.01 | chain 5 S1A

Variants of: B2
Test: % of reporter cells activated (NFAT-GFP), raw

Row | ratio to parent | Variant
56 | 0.461 | chain 5 S1A
57 | 0.295 | chain 5 S1C
58 | 0.3 | chain 5 S1F
59 | 0.349 | chain 5 S1V
60 | 0.392 | chain 5 S1R
61 | 1.02 | chain 5 S1E
62 | 0.675 | chain 5 S1M
63 | 0.115 | chain 5 S1P
64 | 0.61 | chain 5 S1T
65 | 0.0492 | chain 5 S1L
66 | 0.0715 | chain 5 S1I
67 | 0.414 | chain 5 S1Y
68 | 0.0117 | chain 5 K7E
69 | 0.0435 | chain 5 K7H
70 | 0.216 | chain 5 K7N
71 | 0.318 | chain 5 K7R
72 | 0.0585 | chain 5 K7T
73 | 0.063 | chain 5 K7C
74 | 0.0519 | chain 5 K7L
75 | 0.0503 | chain 5 K7D
76 | 0.204 | chain 5 K7G
77 | 0.968 | chain 5 F5W
78 | 0.916 | chain 5 F5L
79 | 1.1 | chain 5 F5A

Row | ratio to parent | Variant
80 | 0.85 | chain 5 F5D
81 | 0.958 | chain 5 F5S
82 | 0.655 | chain 5 F5I
83 | 1.04 | chain 5 F5Y
84 | 1.09 | chain 5 F5M
85 | 0.917 | chain 5 F5V
86 | 1.08 | chain 5 F5T
87 | 0.911 | chain 5 F5H
88 | 0.988 | chain 5 F5P
89 | 1.06 | chain 5 I3E
90 | 1.03 | chain 5 I3G
91 | 0.0463 | chain 5 I3Y
92 | 1.09 | chain 5 I3P
93 | 0.984 | chain 5 I3L
94 | 0.656 | chain 5 I3K
95 | 1.03 | chain 5 I3A
96 | 1.01 | chain 5 I3S
97 | 0.836 | chain 5 I3W
98 | 0.0275 | chain 5 I3F
99 | 0.932 | chain 5 I3N
100 | 0.933 | chain 5 I3V
101 | 0.581 | chain 5 I3R
102 | 1.02 | chain 5 I3C
103 | 1.08 | chain 5 I3Q

Row | ratio to parent | Variant
104 | 0.0148 | chain 5 N4T
105 | 0.00273 | chain 5 N4S
106 | 0.00449 | chain 5 N4Q
107 | 0.168 | chain 5 N4R
108 | 0.294 | chain 5 N4G
109 | 0.134 | chain 5 N4H
110 | 0.246 | chain 5 N4E
111 | 0.41 | chain 5 N4K
112 | 0.0116 | chain 5 N4W
113 | 0.181 | chain 5 N4V
114 | 0.00624 | chain 5 N4A
115 | 0.271 | chain 5 N4I
116 | 0.0163 | chain 5 N4Y
117 | 0.00151 | chain 5 N4M
118 | 0.873 | chain 5 L8R
119 | 0.84 | chain 5 L8S
120 | 0.87 | chain 5 L8G
121 | 0.929 | chain 5 L8T
122 | 0.824 | chain 5 L8C
123 | 0.936 | chain 5 L8M
124 | 0.9 | chain 5 L8Q
125 | 0.913 | chain 5 L8A
126 | 0.941 | chain 5 L8F
127 | 0.8 | chain 5 L8E

Row | ratio to parent | Variant
128 | 0.988 | chain 5 L8I
129 | 0.815 | chain 5 L8V
130 | 0.918 | chain 5 I2Q
131 | 0.885 | chain 5 I2A
132 | 0.835 | chain 5 I2H
133 | 0.456 | chain 5 I2G
134 | 0.715 | chain 5 I2Y
135 | 1.03 | chain 5 I2P
136 | 0.918 | chain 5 I2C
137 | 1.08 | chain 5 I2M
138 | 0.738 | chain 5 I2W
139 | 1.01 | chain 5 I2K
140 | 0.691 | chain 5 I2S
141 | 1.03 | chain 5 I2E
142 | 0.055 | chain 5 E6A
143 | 0.00689 | chain 5 E6I
144 | 0.113 | chain 5 E6D
145 | 0.425 | chain 5 E6K
146 | 0.218 | chain 5 E6Q
147 | 0.0145 | chain 5 E6T
148 | 0.513 | chain 5 E6G
149 | 0.0699 | chain 5 E6S
150 | 0.00458 | chain 5 E6L
